Consider 1 molecule from US20170058032A1 (published 2017).

The target of the assay is T1, extracellular domain of human CD79b fused to Fc (huCD79becd-Fc) (UniProt P40259 29-159).
T1 chain: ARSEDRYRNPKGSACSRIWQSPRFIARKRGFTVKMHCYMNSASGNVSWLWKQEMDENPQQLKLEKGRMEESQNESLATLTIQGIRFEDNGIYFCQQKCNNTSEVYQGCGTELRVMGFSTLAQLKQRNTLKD
Kind of assay: Biacore; Fab.

B1: MA79b Fab (Fab, V domains shown)
VH: EVQLQQSGAELMKPGASVKISCKATGYTFSSYWIEWVKQRPGHGLEWIGEILPGGGDTNYNEIFKGKATFTADTSSNTAYMQLSSLTSEDSAVYYCTRRVPVYFDYWGQGTSVTVSS
VL: DIVLTQSPASLAVSLGQRATISCKASQSVDYDGDSFLNWYQQKPGQPPKLFIYAASNLESGIPARFSGSGSGTDFTLNIHPVEEEDAATYYCQQSNEDPLTFGAGTELELKR
A word on the Kd: it is the concentration at which binding is half-saturated. As to B1, the Kd came out at 200 nM.
